What was measured:
[1] = mouse, in vivo, sc, 1 mg/kg
Experimental: (§1) Balb/c mice were purchased, with 4 mice in each group. Each IL-2 mutant to be tested was administered subcutaneously once at a dose of 1 mg/kg. Blood was collected from the orbit at different time points after administration, and the plasma was separated and the plasma drug concentration was detected by ELISA. The main pharmacokinetic parameters were calculated, and C-T curve was plotted.

Treg cells = experiment: Pharmacodynamic (PD) study in mice, peripheral Treg cells; assay type: in vivo, Balb/c mice; details: 1 mg/kg s.c. single administration
Experimental: In this example, the pharmacodynamics (PD) of each IL-2 mutant obtained in Example 6 was studied in mice after a single administration to mice. SPF grade Balb/c mice were purchased and randomly divided into groups according to body weight, with 3 mice in each group. Drug administration started on the day of grouping. The dosing and grouping information is shown in Table 9, where G1-G5 were administered once, G6 and G7 were administered once a day, for a total of three doses. 30 µl of blood was taken from each group of mice, for PEGylated IL2 mutants and the negative control, blood was collected on day 0 (pre-administration), day 2, 3, 4, 5, 6 and 7 (only for G3, G4 and G5), and for IL2 and IL2-N88R, blood was collected on day 0 (pre-administration), day 1, 2 and 3. The number of each cell subpopulation was measured by flow cytometry. Antibodies against the staining marker used in flow cytometry are shown in Table 10, and the gating settings are shown in Table 11. Table 9 Dosing and grouping table for single-dose PD study in mice

[2] = Effects on body weight and physiological characteristics of mice; details: 1 mg/kg s.c. once every three days, three times
Experimental: SPF grade Balb/c mice were purchased, with 3 mice in each group. Administration was started on the day of grouping. The test substance or PBS (negative control group) was administered subcutaneously at a dose of 1 mg/kg, once every three days, for a total of three times. The mice were weighed before each administration and three days after the third administration .

[3] = Pharmacokinetic study in mice, single administration, plasma concentration by ELISA; details: 1 mg/kg s.c. single administration
Experimental: as §1

B1: 80K-1PEG-IL2-N88R-N77C: IL-2 mutant N88R, N77C, conjugation site 77, PEG molecular weight 80kD (conjugate)
chain: APTSSSTKKTQLQLEHLLLDLQMILNGINNYKNPKLTRMLTFKFYMPKKATELKHLQCLEEELKPLEEVLNLAQSKC(PEG 80 kDa)FHLRPRDLISRINVIVLELKGSETTFMCEYADETATIVEFLNRWITFSQSIISTLT
T1/2 [1]: 25.23 ± 3.45 h
activation peak of Treg proportion, time (Treg cells): 6 days
increase in Treg proportion at peak (Treg cells): about 15 fold
toxic side effects on mice [2]: less toxic side effects
visual observation of the mice [2]: in good condition
body weight compared with negative control ([2]; three days after the third dose): not significantly different from that of the negative control
AUC inf [3]: 463.63062 ± 37.7282 µg·h/mL
AUClast [3]: 437.8594 ± 41.0906 µg·h/mL
CL [3]: 2.17±0.18
Cmax [3]: 8418.72 ± 491.4 ng/mL
MRT [3]: 40.08 ± 2.1 h
Tmax [3]: 24 h
mean half-life [3]: 25.23 h
mean residence time (MRT) [3]: 40.08 h

From EP4631972A1, “SITE-SPECIFIC COUPLED PEGYLATED INTERLEUKIN-2 MUTANT WITH RECEPTOR AFFINITY PREFERENCE AND USE THEREOF” (priority 2022, dated 2024)
